Test [1] addresses human polyclonal IgG (Gammanorm) (human). Put plainly: SPR; after 96-100 CIP cycles 0.5 M NaOH. (In general: SPR reads the build-up and loss of mass on a sensor chip optically.)
Test [2] has the same target. As to the kind of experiment: SPR; vs reference Zvar1; 0.5 M NaOH cycles.
For test [3] the target is unchanged. Put plainly: SPR; after 100 CIP cycles 0.5 M NaOH.
Test [4] shares this target. As to the kind of experiment: SPR; vs reference Zvar4; 0.5 M NaOH.
Test [5] shares this target. Put plainly: SPR; after 300 CIP cycles 0.5 M NaOH.
Test [6] shares this target. As to the kind of experiment: SPR; vs reference Zvar4; 1 M NaOH.
The target is the same in test [7]. As to the kind of experiment: SPR; after 200 CIP cycles 0.5 M NaOH.
For test [8] the target is unchanged. Put plainly: SPR; after 100 CIP cycles 1 M NaOH.
The target is the same in test [9]. Put plainly: SPR; vs reference Zvar2; 0.5 M NaOH.

In test [1], Zvar(N11E,Q32E,K50R)1 (designed binder) yielded a capacity after 96-100 cycles of 53%. The substance further returned a capacity relative to reference in [2] of 1.04.

In turn, “Zvar(N11K,H18K,D37E,A42R,N43A,L44I)1 (designed binder)” came in with a capacity after 96-100 cycles in [1] of 59%. In test [2], this substance gave a capacity relative to reference of 1.31.

On to “Zvar(N11K,H18K,S33K,D37E,A42R,N43A,L44I,K50R,L51Y)1 (designed binder)”, for which the capacity after 96-100 cycles in [1] is 67%. In test [2], this substance yielded a capacity relative to reference of 1.46.

Take “Zvar(Q9A,N11E,A29D,Q40V,A42K,N43A,L44I)1 (designed binder)”: the capacity after 96-100 cycles in test [1] amounted to 56%. In test [2], the capacity relative to reference is 1.19.

In turn, “Zvar(Q9A,N11E,A29E,Q40V,A42K,N43A,L44I)1 (designed binder)” returned a capacity after 96-100 cycles in test [1] of 57%. The substance further had a capacity relative to reference in test [2] of 1.21.

As to “Zvar(Q9A,N11E,A29F,Q40V,A42K,N43A,L44I)1 (designed binder)”, the capacity after 96-100 cycles in test [1] amounted to 62%. Further, the capacity relative to reference in test [2] was 1.35.

In turn, “Zvar(Q9A,N11E,A29H,Q40V,A42K,N43A,L44I)1 (designed binder)” had a capacity after 96-100 cycles in [1] of 57%. Besides, in test [2], the capacity relative to reference is 1.21.

Take “Zvar(Q9A,N11E,A29I,Q40V,A42K,N43A,L44I)1 (designed binder)”: the capacity after 96-100 cycles in test [1] turned out to be 58%. The capacity relative to reference in [2] turned out to be 1.23.

On to “Zvar(Q9A,N11E,A29K,Q40V,A42K,N43A,L44I)1 (designed binder)”, for which the capacity after 96-100 cycles in test [1] was found to be 59%. Moreover, the capacity relative to reference in test [2] worked out at 1.28.

In test [1], “Zvar(Q9A,N11E,A29L,Q40V,A42K,N43A,L44I)1 (designed binder)” came in with a capacity after 96-100 cycles of 61%. The same substance showed a capacity relative to reference in test [2] of 1.33.

Consider “Zvar(Q9A,N11E,A29M,Q40V,A42K,N43A,L44I)1 (designed binder)”, for which the capacity after 96-100 cycles in test [1] came to 62%. The same substance registered a capacity relative to reference in [2] of 1.32.

In turn, “Zvar(Q9A,N11E,A29N,Q40V,A42K,N43A,L44I)1 (designed binder)” yielded a capacity after 96-100 cycles in test [1] of 61%. In test [2], this substance displayed a capacity relative to reference of 1.3.

On to “Zvar(Q9A,N11E,A29Q,Q40V,A42K,N43A,L44I)1 (designed binder)”, for which, in [1], the capacity after 96-100 cycles worked out at 60%. Also, the capacity relative to reference in test [2] was determined as 1.28.

The substance “Zvar(Q9A,N11E,A29R,Q40V,A42K,N43A,L44I)1 (designed binder)” yielded a capacity after 96-100 cycles in [1] of 58%. The capacity relative to reference in test [2] was determined as 1.26.

On to “Zvar(Q9A,N11E,A29S,Q40V,A42K,N43A,L44I)1 (designed binder)”, for which the capacity after 96-100 cycles in [1] worked out at 66%. This substance also showed a capacity relative to reference in [2] of 1.38.

“Zvar(Q9A,N11E,A29T,Q40V,A42K,N43A,L44I)1 (designed binder)” had a capacity after 96-100 cycles in test [1] of 60%. This substance also displayed a capacity relative to reference in [2] of 1.28.

In turn, “Zvar(Q9A,N11E,A29V,Q40V,A42K,N43A,L44I)1 (designed binder)” showed a capacity after 96-100 cycles in test [1] of 62%. This substance registered a capacity relative to reference in test [2] of 1.32.

Turning to “Zvar(Q9A,N11E,A29W,Q40V,A42K,N43A,L44I)1 (designed binder)”, the capacity after 96-100 cycles in test [1] amounted to 60%. The substance further gave a capacity relative to reference in test [2] of 1.3.

In turn, “Zvar(Q9A,N11E,A29Y,Q40V,A42K,N43A,L44I)1 (designed binder)” showed a capacity after 96-100 cycles in test [1] of 61%. For the same substance, the capacity relative to reference in test [2] amounted to 1.27.

“Zvar(Q9A,N11E,D37E,Q40V,A42K,N43A,L44I)4 (designed binder)” came in with a remaining capacity 100 cycles in test [3] of 81%. In test [4], this substance displayed a capacity relative to ref. 100 cycles of 1.13.

Turning to “Zvar(Q9A,N11E,D37E,Q40V,A42R,N43A,L44I)4 (designed binder)”, the remaining capacity 100 cycles in test [3] amounted to 84%. In test [4], this substance came in with a capacity relative to ref. 100 cycles of 1.17.

In the case of “Zvar(Q9A,N11E,N28A,N43A)4 (designed binder)”, the remaining capacity 100 cycles in test [3] turned out to be 80%; in test [8] it was 55%. The substance also displayed a remaining capacity 300 cycles in test [5] of 42%. Further, the capacity relative to ref. 100 cycles in test [6] worked out at 2.04; in test [4], 1.19. Further, in test [4], the capacity relative to ref. 200 cycles was 1.72. This substance also gave a capacity relative to ref. 300 cycles in test [4] of 2.62. Moreover, the remaining capacity 200 cycles in test [7] was 62%.

With “Zvar(Q9A,N11E,N28A,Q40V,A42K,N43A,L44I)1 (designed binder)”, in test [1], the capacity after 96-100 cycles was 65%. Besides, the capacity relative to reference in test [2] is 1.35.

As to “Zvar(Q9A,N11E,N28A,Q40V,A42K,N43A,L44I)4 (designed binder)”, the remaining capacity 100 cycles in test [3] was found to be 84%. This substance also returned a capacity relative to ref. 100 cycles in test [4] of 1.24.

Zvar(Q9A,N11E,N43A)4 (designed binder) yielded a remaining capacity 100 cycles in test [3] of 81%. The remaining capacity 300 cycles in test [5] came to 41%. Besides, in test [4], the capacity relative to ref. 100 cycles worked out at 1.21, the capacity relative to ref. 200 cycles came to 1.72 and the capacity relative to ref. 300 cycles was determined as 2.56. Also, the remaining capacity 200 cycles in test [7] was determined as 62%.

In the case of “Zvar(Q9A,N11E,Q40V,A42K,N43A,L44I)2 with A56, P57 and K58 in linker deleted (designed binder)”, in [3], the remaining capacity 100 cycles turned out to be 68%. In test [9], this substance returned a capacity relative to ref. 100 cycles of 1.26.

The substance “Zvar(Q9A,N11E,Q40V,A42K,N43A,L44I)2 with D2, A3 and K4 in linker deleted (designed binder)” gave a remaining capacity 100 cycles in test [3] of 70%. Besides, the capacity relative to ref. 100 cycles in test [9] stood at 1.27.

“Zvar(Q9A,N11E,Q40V,A42K,N43A,L44I)2 with K4, F5, D6, K7 and E8 in linker deleted (designed binder)”: the remaining capacity 100 cycles in [3] was 70%. In test [9], this substance returned a capacity relative to ref. 100 cycles of 1.3.

Turning to “Zvar(Q9A,N11E,Q40V,A42K,N43A,L44I)2 with K58, V1 and D2 in linker deleted (designed binder)”, the remaining capacity 100 cycles in [3] came out at 76%. In addition, the capacity relative to ref. 100 cycles in test [9] was 1.38.

Substance “Zvar(Q9A,N11E,Q40V,A42K,N43A,L44I)2 with P57, K58, V1, D2 and A3 in linker deleted (designed binder)” gave a remaining capacity 100 cycles in test [3] of 74%. The substance also showed a capacity relative to ref. 100 cycles in test [9] of 1.35.

For “Zvar(Q9A,N11E,Q40V,A42K,N43A,L44I)2 with V1, D2 and A3 in linker deleted (designed binder)”, the remaining capacity 100 cycles in test [3] came to 75%. For the same substance, the capacity relative to ref. 100 cycles in test [9] came to 1.39.

In turn, “Zvar(Q9A,N11E,Q40V,A42K,N43A,L44I)2 with V1, D2, A3, K4, F5, D6, K7 and E8 in linker deleted (designed binder)” came in with a remaining capacity 100 cycles in [3] of 62%. Further, the capacity relative to ref. 100 cycles in [9] was 1.13.

In test [3], “Zvar(Q9A,N11E,Q40V,A42K,N43A,L44I)2 with YEDG inserted in linker between K58 and V1 (designed binder)” registered a remaining capacity 100 cycles of 72%. Moreover, the capacity relative to ref. 100 cycles in test [9] is 1.31.

In turn, “Zvar(Q9A,N11E,Q40V,A42K,N43A,L44I,D53F)1 (designed binder)” yielded a capacity after 96-100 cycles in test [1] of 58%. Besides, the capacity relative to reference in test [2] came to 1.26.

With “Zvar(Q9A,N11E,Q40V,A42K,N43A,L44I,D53K)1 (designed binder)”, the capacity after 96-100 cycles in [1] was 65%. Also, in [2], the capacity relative to reference worked out at 1.41.

Consider “Zvar(Q9A,N11E,Q40V,A42K,N43A,L44I,D53R)1 (designed binder)”, for which the capacity after 96-100 cycles in [1] was 60%. In test [2], the capacity relative to reference turned out to be 1.3.

On to “Zvar(Q9A,N11E,Q40V,A42K,N43A,L44I,D53W)1 (designed binder)”, for which, in test [1], the capacity after 96-100 cycles is 62%. Also, the capacity relative to reference in test [2] worked out at 1.35.

In turn, “Zvar(Q9A,N11E,Q40V,A42K,N43A,L44I,D53Y)1 (designed binder)” gave a capacity after 96-100 cycles in [1] of 59%. Moreover, the capacity relative to reference in test [2] turned out to be 1.28.

The substance “Zvar(Q9A,N11E,Q40V,A42K,N43del,L44I)1 (designed binder)” displayed a capacity after 96-100 cycles in test [1] of 55%. For the same substance, the capacity relative to reference in test [2] turned out to be 1.2.

As for “Zvar(Q9A,N11E,Q40V,A42del,N43A,L44I)1 (designed binder)”, the capacity after 96-100 cycles in test [1] came to 57%. Moreover, the capacity relative to reference in test [2] was determined as 1.24.

“Zvar(Q9A,N11E,Q40del,A42K,N43A,L44I)1 (designed binder)” had a capacity after 96-100 cycles in test [1] of 59%. The substance also gave a capacity relative to reference in [2] of 1.28.

“Zvar(Q9A,N11K,H18K,D37E,A42R,N43A,L44I)1 (designed binder)” displayed a capacity after 96-100 cycles in [1] of 63%. Besides, in test [2], the capacity relative to reference stood at 1.4.

The substance “Zvar(Q9A,N11K,H18K,D37E,A42R,N43A,L44I,K50R)1 (designed binder)” registered a capacity after 96-100 cycles in [1] of 67%. Also, the capacity relative to reference in test [2] is 1.49.

For “Zvar(Q9A,N11K,H18K,S33K,D37E,A42R,N43A,L44I,K50R,L51Y)1 (designed binder)”, in [1], the capacity after 96-100 cycles was 59%. Moreover, the capacity relative to reference in [2] is 1.28.

“Zvar(Q9del,N11E,Q40V,A42K,N43A,L44I)1 (designed binder)” displayed a capacity after 96-100 cycles in [1] of 60%. The substance further registered a capacity relative to reference in test [2] of 1.3.

As to “parental B domain of Staphylococcus Protein A (from UniProt A0A0H3K686 212-269)”, the reference capacity after 96-100 cycles in test [1] was found to be 35%.

In the case of “parental C domain of Staphylococcus Protein A (from UniProt A0A0H3K686 270-327)”, the reference capacity after 96-100 cycles in test [1] worked out at 49%.
